By Kd is commonly meant the free concentration of one partner at which half of the binding sites on the other are occupied at equilibrium, for simple one-to-one binding. A higher Kd goes with lower affinity. In general, koff refers to the rate constant with which the complex falls apart. High values mean fast dissociation, low ones slow dissociation. By kon is commonly meant the second-order rate constant of association.

In assay [1] the target is T1, puroindoline A (Triticum aestivum, UniProt P33432 29-148).
T1 construct: puroindoline A (PINA) of Triticum aestivum cv; Recital, purified from grain; about 13 kDa, five disulfide bonds, tryptophan-rich domain; The Pina allele of cv; The preparation probably holds several C-terminally processed forms; also called PINA
T1 sequence (looked up): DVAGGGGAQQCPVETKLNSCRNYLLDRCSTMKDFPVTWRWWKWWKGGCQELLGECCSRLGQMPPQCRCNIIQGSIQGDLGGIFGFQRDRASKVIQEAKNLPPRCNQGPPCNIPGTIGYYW
Nature of the assay: SPR; (PQQPY)8 covalently bound to a CM5 chip; PINA 2 to 20 μM flowed over, 25°C, Hepes buffer pH 7.4; steady-state fit, 1:1 Langmuir model. The note with it: both partners purified. (In general: In SPR one partner is held on a chip, and binding of the other changes the refractive index at the surface.)

The target in assay [2] is T1, puroindoline A. Kind of assay: SPR; α-gliadin, γ-gliadin or (PQQPY)8 covalently bound to a CM5 chip (EDC/NHS, 10 mM acetate pH 4.7); PINA flowed over at 10 μL/min, 25°C, 10 mM Hepes pH 7.4, 150 mM NaCl, 3.4 mM EDTA, 0.005% P20; global kinetic fit, 1:1 Langmuir model. To be noted: both partners purified.

B1: recombinant polypeptide (PQQPY)8 (peptide)
chain: PQQPYPQQPYPQQPYPQQPYPQQPYPQQPYPQQPYPQQPY
notes: written out from '(PQQPY)8'; measured mass 4924.5 Da, theoretical 4924.3 Da; The fusion is printed as thioredoxin-DP-(PQQPY)8 and was cut in formic acid; The printed theoretical mass of 4924.3 Da fits 40 residues (eight repeats, monoisotopic) without a further proline; also called (Pro-Gln-Gln-Pro-Tyr)8; spr8; source: BLR strain, pETb32 vector, thioredoxin fusion; not shown: thioredoxin, …
Regarding B1, in assay [1], the Kd turned out to be 7.22 ± 2.8 µM. Further, in assay [2], the Kd stood at 0.29 ± 0.005 µM, the koff stood at 0.0015 ± 0.1 s⁻¹ and the kon was 5000 ± 0.03 M⁻¹ s⁻¹.

(Values after PMC7523994, “Relationships between puroindoline A-prolamin interactions and wheat grain hardness” (PLoS ONE, 2020).)
